Target: Tor2 (yeast (endogenous in yeast cells), UniProt P32600 1-2474)
Assay: cryo-EM structure

Sequence of Tor2 (P32600 whole entry): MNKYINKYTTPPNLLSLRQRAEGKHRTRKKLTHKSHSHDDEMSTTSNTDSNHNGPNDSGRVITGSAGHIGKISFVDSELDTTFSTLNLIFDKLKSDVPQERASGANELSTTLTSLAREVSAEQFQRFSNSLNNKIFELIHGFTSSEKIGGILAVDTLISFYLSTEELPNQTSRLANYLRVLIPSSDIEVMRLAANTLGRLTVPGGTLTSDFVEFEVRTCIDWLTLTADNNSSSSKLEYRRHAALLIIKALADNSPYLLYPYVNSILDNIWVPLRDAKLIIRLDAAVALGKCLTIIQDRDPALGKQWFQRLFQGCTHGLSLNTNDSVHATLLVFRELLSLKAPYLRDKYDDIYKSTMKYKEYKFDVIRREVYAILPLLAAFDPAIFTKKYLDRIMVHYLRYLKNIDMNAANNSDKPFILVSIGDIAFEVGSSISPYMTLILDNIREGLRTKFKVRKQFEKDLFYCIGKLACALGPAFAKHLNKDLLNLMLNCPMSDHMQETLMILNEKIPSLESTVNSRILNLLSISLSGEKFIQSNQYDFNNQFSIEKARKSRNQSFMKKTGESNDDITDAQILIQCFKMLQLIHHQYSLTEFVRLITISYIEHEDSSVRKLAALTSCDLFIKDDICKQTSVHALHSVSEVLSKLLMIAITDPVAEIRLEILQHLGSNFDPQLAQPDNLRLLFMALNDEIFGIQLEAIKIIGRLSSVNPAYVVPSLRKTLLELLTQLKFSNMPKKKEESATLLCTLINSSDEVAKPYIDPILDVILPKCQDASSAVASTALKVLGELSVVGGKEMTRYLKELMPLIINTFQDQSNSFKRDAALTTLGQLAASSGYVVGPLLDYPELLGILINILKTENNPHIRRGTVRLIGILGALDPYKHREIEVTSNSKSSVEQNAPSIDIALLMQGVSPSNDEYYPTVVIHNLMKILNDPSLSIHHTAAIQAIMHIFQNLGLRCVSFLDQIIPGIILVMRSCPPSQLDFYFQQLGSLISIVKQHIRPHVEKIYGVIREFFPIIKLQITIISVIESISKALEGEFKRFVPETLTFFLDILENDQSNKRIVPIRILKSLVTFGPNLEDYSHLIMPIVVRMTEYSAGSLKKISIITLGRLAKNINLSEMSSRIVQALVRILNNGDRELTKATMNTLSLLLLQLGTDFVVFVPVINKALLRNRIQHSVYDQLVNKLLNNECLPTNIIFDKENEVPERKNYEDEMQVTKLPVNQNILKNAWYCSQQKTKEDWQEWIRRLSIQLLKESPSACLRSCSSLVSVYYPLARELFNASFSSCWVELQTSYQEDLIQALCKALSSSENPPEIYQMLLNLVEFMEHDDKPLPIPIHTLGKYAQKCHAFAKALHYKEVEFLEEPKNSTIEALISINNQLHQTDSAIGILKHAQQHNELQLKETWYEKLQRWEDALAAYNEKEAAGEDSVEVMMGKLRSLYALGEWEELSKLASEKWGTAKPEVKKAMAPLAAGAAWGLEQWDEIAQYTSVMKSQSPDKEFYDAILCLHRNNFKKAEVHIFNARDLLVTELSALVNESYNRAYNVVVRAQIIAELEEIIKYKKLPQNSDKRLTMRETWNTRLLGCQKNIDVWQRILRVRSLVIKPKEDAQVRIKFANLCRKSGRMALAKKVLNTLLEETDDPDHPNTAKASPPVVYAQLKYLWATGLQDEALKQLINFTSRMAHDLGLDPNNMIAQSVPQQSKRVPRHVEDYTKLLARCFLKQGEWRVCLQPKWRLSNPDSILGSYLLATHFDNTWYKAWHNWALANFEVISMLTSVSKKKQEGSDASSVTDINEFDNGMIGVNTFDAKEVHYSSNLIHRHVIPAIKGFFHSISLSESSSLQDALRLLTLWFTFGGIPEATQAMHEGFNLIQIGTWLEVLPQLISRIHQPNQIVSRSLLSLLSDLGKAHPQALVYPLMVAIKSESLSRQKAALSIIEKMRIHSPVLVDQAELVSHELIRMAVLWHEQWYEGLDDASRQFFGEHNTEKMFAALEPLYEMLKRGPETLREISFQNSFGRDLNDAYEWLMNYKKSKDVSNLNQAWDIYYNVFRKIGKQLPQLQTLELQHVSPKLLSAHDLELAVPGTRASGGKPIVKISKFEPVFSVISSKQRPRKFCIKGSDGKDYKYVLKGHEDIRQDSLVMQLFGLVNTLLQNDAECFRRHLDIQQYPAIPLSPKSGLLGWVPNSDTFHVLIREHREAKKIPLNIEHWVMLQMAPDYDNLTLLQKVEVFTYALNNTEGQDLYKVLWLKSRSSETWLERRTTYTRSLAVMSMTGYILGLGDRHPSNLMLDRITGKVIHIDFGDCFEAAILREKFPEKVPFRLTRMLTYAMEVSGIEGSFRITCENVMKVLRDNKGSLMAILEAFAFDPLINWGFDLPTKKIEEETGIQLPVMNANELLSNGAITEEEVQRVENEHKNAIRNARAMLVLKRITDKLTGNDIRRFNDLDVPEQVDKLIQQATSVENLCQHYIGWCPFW

B1: Lst8 (natural protein)
chain: MSVILVSAGYDHTIRFWEALTGVCSRTIQHSDSQVNRLEITNDKKLLATAGHQNVRLYDIRTTNPNPVASFEGHRGNVTSVSFQQDNRWMVTSSEDGTIKVWDVRSPSIPRNYKHNAPVNEVVIHPNQGELISCDRDGNIRIWDLGENQCTHQLTPEDDTSLQSLSMASDGSMLAAANTKGNCYVWEMPNHTDASHLKPVTKFRAHSTYITRILLSSDVKHLATCSADHTARVWSIDDDFKLETTLDGHQRWVWDCAFSADSAYLVTASSDHYVRLWDLSTREIVRQYGGHHKGAVCVALNDV
  binding result: binds

B2: Avo2 (natural protein)
chain: MLKEPSVRLREAIIEGNLLIVKRLLRRNPDLLTNIDSENGWSSLHYASYHGRYLICVYLIQLGHDKHELIKTFKGNTCVHLALMKGHEQTLHLLLQQFPRFINHRGENGRAPIHIACMNDYYQCLSLLIGVGADLWVMDTNGDTPLHVCLEYGSISCMKMLLNEGEVSLDDNVRDKGNWKPIDVAQTFEVGNIYSKVLKEVKKKGPPLGAGKKPSSFRTPILNAKATFEDGPSPVLSMNSPYSLYSNNSPLPVLPRRISTHTTSGNGGNRRSSITNPVFNPRKPTLSTDSFSSSSNSSSRLRVNSINVKTPVGVSPKKELVSESVRHSATPTSPHNNIALINRYLLPNKSNDNVRGDSQTATINDDGGGGNGGDATIGMGLRKDPDDENENKYKIKVNNGEPRRRVSLLNIPISKLRNSNNTRAED
  binding result: binds

Source: publication doi:10.1101/2025.07.02.662585 (bioRxiv, 2025)
